# Results from patent US20250145711A1 (Janssen / Centocor, published 2025).
# Where a chain is given by its changes, count along the chain named.
# B1: PS3B915 (bispecific antibody, human IgG1, lambda, L234A L235A)
# heavy 1: QVQLQQSGPRLVRPSQTLSLTCAISGDSVFNNNAAWSWIRQSPSRGLEWLGRTYYRSKWLYDYAVSVKSRITVNPDTSRNQFTLQLNSVTPEDTALYYCARGYSSSFDYWGQGTLVTVSSASTKGPSVFPLAPSSKSTSGGTAALGCLVKDYFPEPVTVSWNSGALTSGVHTFPAVLQSSGLYSLSSVVTVPSSSLGTQTYICNVNHKPSNTKVDKKVEPKSCDKTHTCPPCPAPEAAGGPSVFLFPPKPKDTLMISRTPEVTCVVVSVSHEDPEVKFNWYVDGVEVHNAKTKPREEQYNSTYRVVSVLTVLHQDWLNGKEYKCKVSNKALPAPIEKTISKAKGQPREPQVYTLPPSREEMTKNQVSLTCLVKGFYPSDIAVEWESNGQPENNYKTTPPVLDSDGSFLLYSKLTVDKSRWQQGNVFSCSVMHEALHNHYTQKSLSLSPG
# light 1: QSALTQPASVSGSPGQSITISCTGTSSNIGTYKFVSWYQQHPDKAPKVLLYEVSKRPSGVSSRFSGSKSGNTASLTISGLQAEDQADYHCVSYAGSGTLLFGGGTKLTVLGQPKAAPSVTLFPPSSEELQANKATLVCLISDFYPGAVTVAWKADSSPVKAGVETTTPSKQSNNKYAASSYLSLTPEQWKSHRSYSCQVTHEGSTVEKTVAPTECS
# heavy 2: not shown
# light 2: not shown
# notes: FAB-A: CD3B891 (CD3B376 - K477); FAB-B: PSMB892
# B2: PS3B919 (bispecific antibody, human IgG1, lambda, L234A L235A)
# heavy 1: B1 heavy 1
# light 1: B1 light 1
# heavy 2: EVQLVESGGGLVQPGGSLRLSCAASGFTFSSYAMSWVRQAPGKGLEWVSAISGGIGSTYYADSVKGRFTISRDNSKNTLWLQMNSLRAEDTAVYYCAKDGVGATPYYFDYWGQGTLVTVSSASTKGPSVFPLAPSSKSTSGGTAALGCLVKDYFPEPVTVSWNSGALTSGVHTFPAVLQSSGLYSLSSVVTVPSSSLGTQTYICNVNHKPSNTKVDKKVEPKSCDKTHTCPPCPAPEAAGGPSVFLFPPKPKDTLMISRTPEVTCVVVSVSHEDPEVKFNWYVDGVEVHNAKTKPREEQYNSTYRVVSVLTVLHQDWLNGKEYKCKVSNKALPAPIEKTISKAKGQPREPQVYTLPPSREEMTKNQVSLTCLVKGFYPSDIAVEWESNGQPENNYKTTPPVLDSDGSFFLYSRLTVDKSRWQQGNVFSCSVMHEALHNHYTQKSLSLSPG
# light 2: QSVLTQPPSVSAAPGQKVTISCSGSSSNIGNNYVSWYQQLPGTAPKLLIYDNNKRPSGIPDRFSGSKSGTSATLGITGLQTGDEADYYCGTWDSSLSAYVFGTGTKVTVLGQPKAAPSVTLFPPSSEELQANKATLVCLISDFYPGAVTVAWKADSSPVKAGVETTTPSKQSNNKYAASSYLSLTPEQWKSHRSYSCQVTHEGSTVEKTVAPTECS
# notes: FAB-A: CD3B891 (CD3B376 - K477); FAB-B: PSMB895
# B3: PS3B921 (bispecific antibody, human IgG1, lambda, L234A L235A)
# heavy 1: B1 heavy 1
# light 1: B1 light 1
# heavy 2: B2 heavy 2
# light 2: B2 light 2 with N31I, Y99V, T103G, V107L
# notes: FAB-A: CD3B891 (CD3B376 - K477); FAB-B: PSMB896
# B4: PS3B922 (bispecific antibody, human IgG1, lambda, L234A L235A)
# heavy 1: B1 heavy 1
# light 1: B1 light 1
# heavy 2: B2 heavy 2 with I55S, W80Y, T91S
# light 2: B2 light 2 with N31I, Y99V, T103G, V107L
# notes: FAB-A: CD3B891 (CD3B376 - K477); FAB-B: PSMB898
# B5: PS3B920 (bispecific antibody, human IgG1, lambda, L234A L235A)
# heavy 1: B1 heavy 1
# light 1: B1 light 1
# heavy 2: B2 heavy 2 with I55S, W80Y, T91S
# light 2: B2 light 2
# notes: FAB-A: CD3B891 (CD3B376 - K477); FAB-B: PSMB897
# B6: PS3B912 (bispecific antibody, human IgG1, lambda, L234A L235A)
# heavy 1: B1 heavy 1
# light 1: B1 light 1
# heavy 2: B2 heavy 2 with A23T, T28I, I55Y, S57A, T58P, S63T, W80Y, Y110D, T115I
# light 2: B2 light 2 with Y50F
# notes: FAB-A: CD3B891 (CD3B376 - K477); FAB-B: PSMB899
# B7: PS3B926 (bispecific antibody, human IgG1, kappa, lambda, L234A L235A)
# heavy 1: EVQLVESGGGLVKPGGSLRLSCAASGFTFSRYNMNWVRQAPGKGLEWVSSISTSSNYIYYADSVKGRFTFSRDNAKNSLDLQMSGLRAEDTAIYYCTRGWGPFDYWGQGTLVTVSSASTKGPSVFPLAPSSKSTSGGTAALGCLVKDYFPEPVTVSWNSGALTSGVHTFPAVLQSSGLYSLSSVVTVPSSSLGTQTYICNVNHKPSNTKVDKKVEPKSCDKTHTCPPCPAPEAAGGPSVFLFPPKPKDTLMISRTPEVTCVVVSVSHEDPEVKFNWYVDGVEVHNAKTKPREEQYNSTYRVVSVLTVLHQDWLNGKEYKCKVSNKALPAPIEKTISKAKGQPREPQVYTLPPSREEMTKNQVSLTCLVKGFYPSDIAVEWESNGQPENNYKTTPPVLDSDGSFLLYSKLTVDKSRWQQGNVFSCSVMHEALHNHYTQKSLSLSP
# light 1: DIQMTQSPSSLSASVGDRVTITCRARQSIGTAIHWYQQKPGKAPKLLIKYASESISGVPSRFSGSGSGTDFTLTISSLQPEDFATYYCQQSGSWPYTFGQGTKLEIKRTVAAPSVFIFPPSDEQLKSGTASVVCLLNNFYPREAKVQWKVDNALQSGNSQESVTEQDSKDSTYSLSSTLTLSKADYEKHKVYACEVTHQGLSSPVTKSFNRGEC
# heavy 2: not shown
# light 2: not shown
# notes: FAB-A: CD3B2183 (CD3W245); FAB-B: PSMB891
# B8: PS3B932 (bispecific antibody, human IgG1, kappa, lambda, L234A L235A)
# heavy 1: B7 heavy 1
# light 1: B7 light 1
# heavy 2: B2 heavy 2
# light 2: B2 light 2
# notes: FAB-A: CD3B2183 (CD3W245); FAB-B: PSMB895
# B9: PS3B928 (bispecific antibody, human IgG1, kappa, lambda, L234A L235A)
# heavy 1: B7 heavy 1
# light 1: B7 light 1
# heavy 2: not shown
# light 2: not shown
# notes: FAB-A: CD3B2183 (CD3W245); FAB-B: PSMB892
# B10: PS3B933 (bispecific antibody, human IgG1, kappa, lambda, L234A L235A)
# heavy 1: B7 heavy 1
# light 1: B7 light 1
# heavy 2: B2 heavy 2 with I55S, W80Y, T91S
# light 2: B2 light 2
# notes: FAB-A: CD3B2183 (CD3W245); FAB-B: PSMB897
# B11: PS3B925 (bispecific antibody, human IgG1, kappa, lambda, L234A L235A)
# heavy 1: B7 heavy 1
# light 1: B7 light 1
# heavy 2: B2 heavy 2 with A23T, T28I, I55Y, S57A, T58P, S63T, W80Y, Y110D, T115I
# light 2: B2 light 2 with Y50F
# notes: FAB-A: CD3B2183 (CD3W245); FAB-B: PSMB899
# Molecular target: T1, human PSMA on prostate cancer cell lines (22RV1, C4-2B) (human, UniProt Q04609 1-750)
# T1 construct: also called PSMA-expressing cell lines
# Experiment: flow cytometry on 22RV1 cells
# Procedure: (§1) 22RV1 and C4-2B cells were plated at 50,000 cells per well in 50 μl of assay medium (RPMI, 10% HI FBS) in V bottom plates. Serial dilutions of antibodies were prepared in assay medium with 50 μl of antibody dilutions added to the plates containing cells. The plates were incubated for 60 min at 37° C. at which time 100 μl of staining buffer (Becton Dickinson Cat #554657) was added to all wells of each plate. The plates were centrifuged at 300×G for 5 minutes and the medium was removed from the wells. 200 μl of staining buffer was added to all wells of each plate. The plates were centrifuged at 300× G for 5 minutes and the medium was removed from the wells. 50 μl of 2 μg/ml AlexaFluor647-labeled goat anti-human Fc was added to all wells of the plates and the plates were incubated for 30 minutes at 4° C. 150 μl of staining buffer was added to all wells of each plate. The plates were centrifuged at 300× G for 5 minutes and the medium was removed from the wells.
# T1 sequence (Q04609 whole entry): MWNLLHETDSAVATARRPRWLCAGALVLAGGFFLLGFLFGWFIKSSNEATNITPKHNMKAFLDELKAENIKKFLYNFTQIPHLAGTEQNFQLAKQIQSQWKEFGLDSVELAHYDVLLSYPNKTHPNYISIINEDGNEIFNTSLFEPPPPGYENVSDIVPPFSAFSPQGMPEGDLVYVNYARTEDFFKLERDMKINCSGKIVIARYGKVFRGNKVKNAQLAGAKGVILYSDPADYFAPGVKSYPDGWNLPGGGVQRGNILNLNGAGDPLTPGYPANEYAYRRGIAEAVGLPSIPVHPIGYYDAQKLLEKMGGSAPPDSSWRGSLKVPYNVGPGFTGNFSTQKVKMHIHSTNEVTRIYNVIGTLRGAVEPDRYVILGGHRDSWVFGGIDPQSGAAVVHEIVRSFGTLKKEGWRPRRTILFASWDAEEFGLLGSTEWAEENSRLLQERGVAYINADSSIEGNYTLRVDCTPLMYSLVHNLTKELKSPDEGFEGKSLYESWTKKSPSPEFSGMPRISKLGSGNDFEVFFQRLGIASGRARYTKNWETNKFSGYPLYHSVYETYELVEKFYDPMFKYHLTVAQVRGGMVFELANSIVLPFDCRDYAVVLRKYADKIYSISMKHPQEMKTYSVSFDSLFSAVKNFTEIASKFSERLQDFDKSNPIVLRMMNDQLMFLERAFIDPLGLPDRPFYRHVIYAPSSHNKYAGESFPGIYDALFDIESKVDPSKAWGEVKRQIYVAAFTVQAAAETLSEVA
row,EC50,Binder
1,60 nM,B1
2,24.9 nM,B2
3,4.03 nM,B3
4,34.7 nM,B4
5,60 nM,B5
6,54 nM,B6
7,2.9 nM,B7
8,48.7 nM,B8
9,60 nM,B9
10,60 nM,B10
11,21.2 nM,B11

# Molecular target: T1, human PSMA on prostate cancer cell …
# Experiment: flow cytometry on C4-2B cells
# Procedure: as §1
row,EC50,Binder
1,60 nM,B1
2,23.3 nM,B2
3,6.44 nM,B3
4,44.1 nM,B4
5,60 nM,B5
6,36.8 nM,B6
7,4.55 nM,B7
8,60 nM,B8
9,60 nM,B9
10,60 nM,B10
11,11.7 nM,B11

# Molecular target: T2, recombinant human PSMA (human, UniProt Q04609 44-750)
# T2 construct: also called hu PSMA; prostate-specific membrane antigen
# Experiment: SPR (Biacore 8K), antibody captured on anti-Fc, PSMA in solution
# Procedure: The binding affinity of anti-PSMA to the recombinant human, cynomolgus or mouse PSMA was determined by surface plasmon resonance (SPR) using a Biacore 8K instrument\. […] The association and dissociation were monitored for 3 and 15 minutes, respectively, using a flow rate of 50 μL/min. Raw binding data was referenced by subtracting the analyte binding signals from blanks and analyzed using a 1:1 Langmuir binding model using the Biacore Insight evaluation software to obtain the kinetics which were used to calculate the binding affinity. The anti-PSMA were captured using an anti-human Fc antibody and the antigens were injected in solution.
# T2 sequence (Q04609 44-750 limits assumed): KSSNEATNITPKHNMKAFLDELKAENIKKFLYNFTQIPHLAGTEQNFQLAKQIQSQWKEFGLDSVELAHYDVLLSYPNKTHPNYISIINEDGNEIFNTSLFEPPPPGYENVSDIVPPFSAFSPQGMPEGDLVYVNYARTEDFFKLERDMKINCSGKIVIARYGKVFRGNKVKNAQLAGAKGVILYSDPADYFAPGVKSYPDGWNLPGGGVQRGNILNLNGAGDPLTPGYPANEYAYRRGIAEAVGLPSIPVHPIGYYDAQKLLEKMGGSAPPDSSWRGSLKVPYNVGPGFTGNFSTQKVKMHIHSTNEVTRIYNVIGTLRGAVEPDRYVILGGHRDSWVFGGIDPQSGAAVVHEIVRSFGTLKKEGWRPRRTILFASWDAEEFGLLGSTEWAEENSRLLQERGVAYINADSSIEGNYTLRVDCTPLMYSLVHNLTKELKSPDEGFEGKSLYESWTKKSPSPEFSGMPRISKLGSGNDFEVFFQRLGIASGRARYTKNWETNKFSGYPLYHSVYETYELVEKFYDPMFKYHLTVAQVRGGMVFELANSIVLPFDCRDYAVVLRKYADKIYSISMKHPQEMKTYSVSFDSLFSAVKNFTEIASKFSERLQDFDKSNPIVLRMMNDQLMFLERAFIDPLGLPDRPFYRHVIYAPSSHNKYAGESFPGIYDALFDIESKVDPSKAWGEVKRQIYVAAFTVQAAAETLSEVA
row,Kd,Binder
1,1.89 nM,B1
2,0.823 nM,B2
3,≤ 0.0864 nM,B3
4,0.41 nM,B4
5,1.35 nM,B5
6,0.174 nM,B6
7,≤ 0.253 nM,B7
8,0.787 nM,B8
9,2.37 nM,B9
10,1.44 nM,B10
11,0.169 nM,B11
